Data set [1] deals with T1, DDB2 (FLAG-tagged, in DDB.com);DDB1;Cul4A;Roc1 (Homo sapiens?;Homo sapiens?;Homo …, UniProt Q92466;Q16531;Q13619;P62877 1-427;1-1140;1-759;1-108, |||). Description: competition.
The target of data set [2] is T1, DDB2 (FLAG-tagged, in …). Description: EMSA.
Data set [3] concerns the target T1, DDB2 (FLAG-tagged, in …). The experiment in a line: EMSA. The source holds these as a separate data set. A general note: A gel shift assay detects complexes by their altered migration in electrophoresis.
The target in data set [4] is T1, DDB2 (FLAG-tagged, in …). The experiment in a line: competition. The source holds these as a separate data set.

T1 sequence (Q92466 whole entry, chain 1 of 4): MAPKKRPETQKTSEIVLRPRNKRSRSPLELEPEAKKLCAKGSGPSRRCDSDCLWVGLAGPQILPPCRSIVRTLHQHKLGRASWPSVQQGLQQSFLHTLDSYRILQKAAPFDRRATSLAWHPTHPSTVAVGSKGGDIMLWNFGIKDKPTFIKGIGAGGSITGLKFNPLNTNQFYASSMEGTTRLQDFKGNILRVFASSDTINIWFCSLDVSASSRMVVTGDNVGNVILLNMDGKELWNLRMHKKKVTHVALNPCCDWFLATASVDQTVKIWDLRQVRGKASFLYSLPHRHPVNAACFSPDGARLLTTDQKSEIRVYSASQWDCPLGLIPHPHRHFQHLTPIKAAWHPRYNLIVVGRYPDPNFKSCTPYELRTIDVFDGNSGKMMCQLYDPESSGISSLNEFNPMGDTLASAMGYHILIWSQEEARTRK
T1 sequence (Q16531 whole entry, chain 2 of 4): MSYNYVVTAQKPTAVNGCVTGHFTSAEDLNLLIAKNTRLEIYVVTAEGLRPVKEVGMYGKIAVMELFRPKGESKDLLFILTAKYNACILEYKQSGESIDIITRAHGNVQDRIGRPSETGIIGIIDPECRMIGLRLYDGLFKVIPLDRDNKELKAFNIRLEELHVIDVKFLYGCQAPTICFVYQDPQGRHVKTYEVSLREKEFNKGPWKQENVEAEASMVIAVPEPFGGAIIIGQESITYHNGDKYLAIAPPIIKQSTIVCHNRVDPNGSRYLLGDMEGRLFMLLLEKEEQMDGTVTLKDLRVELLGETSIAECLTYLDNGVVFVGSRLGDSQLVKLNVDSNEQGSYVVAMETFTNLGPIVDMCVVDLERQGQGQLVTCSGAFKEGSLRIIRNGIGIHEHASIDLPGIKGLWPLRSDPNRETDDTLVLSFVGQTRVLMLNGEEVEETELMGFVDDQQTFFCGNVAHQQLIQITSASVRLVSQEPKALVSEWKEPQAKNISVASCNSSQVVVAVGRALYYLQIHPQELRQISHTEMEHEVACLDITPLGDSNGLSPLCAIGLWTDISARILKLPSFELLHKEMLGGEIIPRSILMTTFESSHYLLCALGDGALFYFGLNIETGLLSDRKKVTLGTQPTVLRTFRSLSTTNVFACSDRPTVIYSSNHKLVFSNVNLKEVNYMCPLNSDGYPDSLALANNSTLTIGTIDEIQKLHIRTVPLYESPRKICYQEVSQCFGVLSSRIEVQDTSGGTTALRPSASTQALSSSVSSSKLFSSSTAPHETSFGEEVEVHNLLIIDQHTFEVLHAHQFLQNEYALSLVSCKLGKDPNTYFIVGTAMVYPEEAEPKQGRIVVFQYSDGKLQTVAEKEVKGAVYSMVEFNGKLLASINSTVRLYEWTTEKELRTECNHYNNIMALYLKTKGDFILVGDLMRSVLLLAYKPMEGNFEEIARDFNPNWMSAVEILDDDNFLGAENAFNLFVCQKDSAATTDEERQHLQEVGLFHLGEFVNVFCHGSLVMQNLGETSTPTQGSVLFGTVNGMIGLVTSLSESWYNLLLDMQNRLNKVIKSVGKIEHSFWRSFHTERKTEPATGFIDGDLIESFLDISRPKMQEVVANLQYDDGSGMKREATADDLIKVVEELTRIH
T1 sequence (Q13619 whole entry, chain 3 of 4): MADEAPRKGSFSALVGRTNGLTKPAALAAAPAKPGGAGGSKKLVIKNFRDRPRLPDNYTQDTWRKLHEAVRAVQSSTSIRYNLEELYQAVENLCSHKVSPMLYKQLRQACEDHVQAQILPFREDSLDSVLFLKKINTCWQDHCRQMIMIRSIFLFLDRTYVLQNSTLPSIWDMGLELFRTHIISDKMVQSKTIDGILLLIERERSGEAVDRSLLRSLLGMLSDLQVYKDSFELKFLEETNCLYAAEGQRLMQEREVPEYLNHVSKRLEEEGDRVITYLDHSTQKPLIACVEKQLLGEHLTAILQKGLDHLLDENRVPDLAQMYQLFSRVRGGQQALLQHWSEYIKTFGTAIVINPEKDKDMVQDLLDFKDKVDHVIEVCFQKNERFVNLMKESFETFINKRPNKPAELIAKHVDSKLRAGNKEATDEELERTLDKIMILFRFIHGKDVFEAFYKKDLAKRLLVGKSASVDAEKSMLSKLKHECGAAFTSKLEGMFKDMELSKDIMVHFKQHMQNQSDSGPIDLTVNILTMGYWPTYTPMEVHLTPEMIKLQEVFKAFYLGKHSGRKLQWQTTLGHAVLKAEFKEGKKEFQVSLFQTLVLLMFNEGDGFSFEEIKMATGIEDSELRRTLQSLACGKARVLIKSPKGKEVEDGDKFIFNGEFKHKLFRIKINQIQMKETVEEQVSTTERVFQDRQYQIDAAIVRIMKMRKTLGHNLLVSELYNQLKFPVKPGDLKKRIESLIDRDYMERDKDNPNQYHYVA
T1 sequence (P62877 whole entry, chain 4 of 4): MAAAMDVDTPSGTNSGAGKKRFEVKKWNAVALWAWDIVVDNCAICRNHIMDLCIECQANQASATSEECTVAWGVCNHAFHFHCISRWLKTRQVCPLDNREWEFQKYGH

B1: Ow (unlabeled wild-type BCP1 competitor) (dsDNA)
DNA 1: ATTAGGAGCTTGAAGCCTTTCAAT
DNA 2: ATTGAAAGGCTTCAAGCTCCTAAT
On to B1, for which the binding result with DDB2 (FLAG-tagged, in …) [1] is “binds”.

B2: MnSOD probe (dsDNA)
DNA 1: GAGGCTAGCCTGCAGCCTCCTTTCTCC
DNA 2: GGAGAAAGGAGGCTGCAGGCTAGCCTC
With B2, the binding result with DDB2 (FLAG-tagged, in …) [2] is “binds”.

B3: Bcl-2 probe (BCP1) (dsDNA)
DNA 1: ATTAGGAGCTTGAAGCCTTTCAAT
DNA 2: ATTGAAAGGCTTCAAGCTCCTAAT
With B3, the binding result in the data set with DDB2 (FLAG-tagged, in …) [3] was “binds”.

B4: Om (unlabeled mutant BCP1 competitor) (dsDNA)
DNA 1: ATTAGGATATTGAAGCCTTTCAAT
DNA 2: ATTGAAAGGCTTCAATATCCTAAT
As to B4, the binding result with DDB2 (FLAG-tagged, in …) [4] is on record as “no binding”.
